# Columns and labels:
# Test in all cases: cell-based or functional assay
# [1] = biological target: Env of HIV-1 strain 231965.c01 (HIV-1)
# [2] = biological target: Env of HIV-1 strain 263-8 (HIV-1)
# [3] = biological target: Env of HIV-1 strain 3415.v1.c1 (HIV-1)
# [4] = biological target: Env of HIV-1 strain 6540.v4.c1 (HIV-1)
# [5] = biological target: Env of HIV-1 strain A07412M1.vrc12 (HIV-1)
# [6] = biological target: Env of HIV-1 strain BJOX010000.06.2 (HIV-1)
# [7] = biological target: Env of HIV-1 strain CNE19 (HIV-1)
# [8] = biological target: Env of HIV-1 strain CNE20 (HIV-1)
# [9] = biological target: Env of HIV-1 strain Ce1176_A3 (HIV-1)
# [10] = biological target: Env of HIV-1 strain REJO4541.67 (HIV-1)
# [11] = biological target: Env of HIV-1 strain T250-4 (HIV-1)
# [12] = biological target: Env of HIV-1 strain X1193_c1 (HIV-1)
# [13] = biological target: HIV-1 Env of strain 1006_11_C3_1601 (HIV-1)
# [14] = biological target: HIV-1 Env of strain 191955_A11 (HIV-1)
# [15] = biological target: HIV-1 Env of strain 231966.c02 (HIV-1)
# [16] = biological target: HIV-1 Env of strain 235-47 (HIV-1)
# [17] = biological target: HIV-1 Env of strain 6244_13_B5_4576 (HIV-1)
# [18] = biological target: HIV-1 Env of strain 6535.3 (HIV-1)
# [19] = biological target: HIV-1 Env of strain 89-F1_2_25 (HIV-1)
# [20] = biological target: HIV-1 Env of strain BJOX015000.11.5 (HIV-1)
# [21] = biological target: HIV-1 Env of strain C4118.c09 (HIV-1)
# [22] = biological target: HIV-1 Env of strain CAP210.2.00.E8 (HIV-1)
# [23] = biological target: HIV-1 Env of strain CAP45.2.00.G3 (HIV-1)
# [24] = biological target: HIV-1 Env of strain CNE52 (HIV-1)
# [25] = biological target: HIV-1 Env of strain QH0692.42 (HIV-1)
# [26] = biological target: HIV-1 Env of strain X1193_c1 (HIV-1)
# [27] = biological target: HIV-1 Env of strain X1632_S2_B10 (HIV-1)
# [28] = biological target: HIV-1 Env of strain ZM135M.PL10a (HIV-1)
# [29] = biological target: HIV-1 Env of strain ZM197M.PB7 (HIV-1)
# NIH45-46 (antibody), sequence (VH): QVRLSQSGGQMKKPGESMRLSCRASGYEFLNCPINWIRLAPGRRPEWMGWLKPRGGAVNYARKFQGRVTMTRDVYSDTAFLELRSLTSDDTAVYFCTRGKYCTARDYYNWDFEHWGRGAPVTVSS
# NIH45-46 (antibody), sequence (V domain): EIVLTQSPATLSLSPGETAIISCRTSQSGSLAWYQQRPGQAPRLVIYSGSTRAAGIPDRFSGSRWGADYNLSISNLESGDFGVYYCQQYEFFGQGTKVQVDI
substance,measurement,setting,value
NIH45-46 (antibody),IC80,[1],0.126 µg/mL
same,IC80,[2],0.1 µg/mL
same,IC80,[3],0.086 µg/mL
same,IC80,[4],> 50 µg/mL
same,IC80,[5],0.13 µg/mL
same,IC80,[6],6.37 µg/mL
same,IC80,[7],0.37 µg/mL
same,IC80,[8],> 50 µg/mL
same,IC80,[9],3.17 µg/mL
same,IC80,[10],0.035 µg/mL
same,IC80,[11],> 50 µg/mL
same,IC80,[12],0.064 µg/mL
same,"IC50, pseudovirus neutralization",[13],0.027 µg/mL
same,"IC50, pseudovirus neutralization",[14],0.11 µg/mL
same,"IC50, pseudovirus neutralization",[15],1.64 µg/mL
same,"IC50, pseudovirus neutralization",[16],0.3 µg/mL
same,"IC50, pseudovirus neutralization",[17],0.07 µg/mL
same,"IC50, pseudovirus neutralization",[18],0.14 µg/mL
same,"IC50, pseudovirus neutralization",[19],> 50 µg/mL
same,"IC50, pseudovirus neutralization",[20],0.06 µg/mL
same,"IC50, pseudovirus neutralization",[21],0.14 µg/mL
same,"IC50, pseudovirus neutralization",[22],> 50 µg/mL
same,"IC50, pseudovirus neutralization",[23],> 50 µg/mL
same,"IC50, pseudovirus neutralization",[24],0.03 µg/mL
same,"IC50, pseudovirus neutralization",[25],0.72 µg/mL
same,"IC50, pseudovirus neutralization",[26],0.021 µg/mL
same,"IC50, pseudovirus neutralization",[27],0.07 µg/mL
same,"IC50, pseudovirus neutralization",[28],0.59 µg/mL
same,"IC50, pseudovirus neutralization",[29],0.15 µg/mL

# Reference: patent US20130209454A1
